This note sets out measurements from patent publication US20100203044A1, “DR6 ANTAGONISTS AND USES THEREOF IN TREATING NEUROLOGICAL DISORDERS” (priority 2006, published 2010).

Entries after “also recorded” stand apart in the source; their conditions may differ.

Assay [1] addresses T1, p75NTR (Homo sapiens, UniProt P08138).
T1 construct: expressed in transfected cells; host or cells: COS-1
T1 sequence (P08138 29-427): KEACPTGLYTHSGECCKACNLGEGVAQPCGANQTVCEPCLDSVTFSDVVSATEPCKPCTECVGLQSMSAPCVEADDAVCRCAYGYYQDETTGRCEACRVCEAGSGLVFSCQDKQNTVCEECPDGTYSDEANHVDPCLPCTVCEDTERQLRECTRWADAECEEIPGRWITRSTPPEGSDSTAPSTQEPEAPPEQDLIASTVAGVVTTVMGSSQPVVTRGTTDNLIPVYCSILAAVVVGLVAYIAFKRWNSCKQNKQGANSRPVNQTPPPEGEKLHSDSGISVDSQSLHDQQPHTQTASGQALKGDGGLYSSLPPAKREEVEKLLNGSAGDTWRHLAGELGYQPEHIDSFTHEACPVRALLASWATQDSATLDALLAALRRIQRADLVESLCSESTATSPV
The assay is described as follows: cell-based AP binding assay, p75NTR expressing COS-1 cells. Conditions: same conditions as APP binding. Here is the method: (§1) For the APP AP binding assay, COS-1 cells cultured in DMEM/10% FBS (Gibco) medium in 6-well culture dishes were transfected with 2 microgram of APP expressing vector per well using FuGene transfection reagent (Roche) according to the manufacturer protocol. Two days post-transfection, cells were washed twice with the binding buffer (HBSS, Gibco Cat. No. 14175-095, with 0.2% BSA, 0.1% NaN3, 5 mM CaCl2, 1 mM MgCl2, 20 mM HEPES, pH=7.0). An AP binding assay was then carried out by making a 1:1 mixture of DR6-AP conditioned medium and the binding buffer, which was applied directly to APP over-expressing COS-1 cells and incubated for 90 minutes at room temperature. Following the incubation, the unbound DR6-AP proteins were washed away by rinsing COS-1 cells five times with the binding buffer. Cells were then fixed with 3.7% formaldehyde diluted in PBS, for 12 minutes at room temperature. The remaining formaldehyde was removed by rinsing cells 3 times with HBS buffer (20 mM HEPES pH=7.0, 150 mM NaCl). Endogenous AP activity was blocked by heat inactivation at 65° C. in HBS buffer for 30 minutes. COS-1 cells were then rinsed three times in the AP reaction buffer (100 mM TRIS pH=9.5, 100 mM NaCl, 50 mM MgCl2). […]

The target of assay [2] is T2, DR6 receptor (Homo sapiens, UniProt O75509).
T2 construct: expressed in transfected cells; host or cells: COS-1
T2 sequence (O75509 42-655): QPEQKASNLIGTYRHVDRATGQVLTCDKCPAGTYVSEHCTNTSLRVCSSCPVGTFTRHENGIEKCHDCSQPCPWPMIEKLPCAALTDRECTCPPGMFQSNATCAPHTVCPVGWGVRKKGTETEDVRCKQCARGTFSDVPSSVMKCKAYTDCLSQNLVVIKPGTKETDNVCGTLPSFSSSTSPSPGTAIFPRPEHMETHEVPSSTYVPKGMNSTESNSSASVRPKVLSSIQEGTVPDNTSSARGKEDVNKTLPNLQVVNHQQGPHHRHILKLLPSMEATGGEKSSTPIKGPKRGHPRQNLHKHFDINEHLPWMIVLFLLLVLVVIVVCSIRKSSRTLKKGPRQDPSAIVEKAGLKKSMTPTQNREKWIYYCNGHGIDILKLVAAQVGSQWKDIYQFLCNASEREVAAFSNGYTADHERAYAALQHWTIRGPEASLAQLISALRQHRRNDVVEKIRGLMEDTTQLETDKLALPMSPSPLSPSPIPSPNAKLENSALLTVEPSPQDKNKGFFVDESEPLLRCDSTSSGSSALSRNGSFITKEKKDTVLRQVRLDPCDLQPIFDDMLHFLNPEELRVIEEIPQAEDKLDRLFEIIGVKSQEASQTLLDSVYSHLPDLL
Kind of assay: cell-based AP binding assay, DR6 receptor expressing COS-1 cells. Particulars: same conditions as APP binding. Here is the method: as §1

Assay [3] concerns the target T3, APP (Homo sapiens, UniProt P05067).
T3 construct: expressed in transfected cells; host or cells: COS-1
The assay is described as follows: cell-based AP binding assay, APP expressing COS-1 cells. Conditions: DR6-AP conditioned medium 1:1 with binding buffer, 90 minutes. On the procedure:
The materials and methods used to generate the data shown in this figure are as follows. To test whether APP directly interacts with DR6 extracellular domain, a cell-based AP binding assay was carried out (FIG. 14B). To generate DR6 ectodomain-AP fusion protein (DR6-AP), COS-1 cells cultured in DMEM/10% FBS (Gibco) medium were transfected with 15 microgram of DR6-AP fusion expression construct using FuGene transfection reagent (Roche) according to the manufacturer protocol. Twelve hours post-transfection, COS-1 cell medium was changed to OPTI-MEM (Invitrogen). Forty-eight hours post-transfection, COS-1 cell conditioned medium containing DR6-AP proteins was collected and filtered.
The amount of DR6-AP proteins in the medium was quantified according to the following procedure. 100 microliters of 2×AP buffer (prepared by adding 100 mg Para-nitrophenyl phosphate (Sigma) and 15 microliter of 1M MgCl2 to 15 ml 2M diethanolamine pH 9.8) was mixed with equal volume of transfected COS cell conditioned medium or control conditioned medium from untransfected COS-1 cells. […] The volume of reaction was then adjusted by adding 800 microliters of distilled water and the O.D. was measured at 405 nm absorbance wavelength. The concentration in nM was calculated according to the formula (for 100 microliter): C (nM)=O.D.×100×(60/developing time)/30. […]

T3 sequence (P05067 18-770): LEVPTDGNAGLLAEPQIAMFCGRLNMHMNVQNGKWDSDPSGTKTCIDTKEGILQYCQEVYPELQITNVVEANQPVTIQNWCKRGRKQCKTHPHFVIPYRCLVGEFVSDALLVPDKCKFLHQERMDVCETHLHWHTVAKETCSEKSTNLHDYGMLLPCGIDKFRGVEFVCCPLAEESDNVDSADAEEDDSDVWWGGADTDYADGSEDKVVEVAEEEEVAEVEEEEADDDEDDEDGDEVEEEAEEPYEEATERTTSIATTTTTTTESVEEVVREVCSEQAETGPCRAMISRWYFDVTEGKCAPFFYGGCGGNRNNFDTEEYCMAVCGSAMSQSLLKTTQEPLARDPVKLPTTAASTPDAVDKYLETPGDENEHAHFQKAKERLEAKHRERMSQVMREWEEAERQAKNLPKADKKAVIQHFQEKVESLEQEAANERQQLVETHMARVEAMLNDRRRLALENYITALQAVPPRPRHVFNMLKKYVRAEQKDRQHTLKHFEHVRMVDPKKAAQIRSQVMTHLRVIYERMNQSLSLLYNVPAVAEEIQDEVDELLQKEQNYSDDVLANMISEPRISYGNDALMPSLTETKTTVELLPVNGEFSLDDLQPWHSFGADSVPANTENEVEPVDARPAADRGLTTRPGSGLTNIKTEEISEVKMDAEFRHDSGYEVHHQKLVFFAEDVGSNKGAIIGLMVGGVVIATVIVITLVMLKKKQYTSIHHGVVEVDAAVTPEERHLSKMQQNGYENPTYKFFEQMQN

B1: DR6-AP: mouse DR6 ectodomain fused to human placental alkaline phosphatase (protein)
chain: QPEQKTLSLPGTYRHVDRTTGQVLTCDKCPAGTYVSEHCTNMSLRVCSSCPAGTFTRHENGIERCHDCSQPCPWPMIERLPCAALTDRECICPPGMYQSNGTCAPHTVCPVGWGVRKKGTENEDVRCKQCARGTFSDVPSSVMKCKAHTDCLGQNLEVVKPGTKETDNVCGMRLFFSSTNPPSSGTVTFSHPEHMESHDVPSSTYEPQGMNSTDSNSTASVRTKVPSGIEEGTVPDNTSSTSGKEGTNRTLPNPPQVTHQQAPHHRHILKLLPSSMEATGEKSSTAIKAPKRGHPRQNAHKHFDINEHIIPVEEENPDFWNREAAEALGAAKKLQPAQTAAKNLIIFLGDGMGVSTVTAARILKGQKKDKLGPEIPLAMDRFPYVALSKTYNVDKHVPDSGATATAYLCGVKGNFQTIGLSAAARFNQCNTTRGNEVISVMNRAKKAGKSVGVVTTTRVQHASPAGTYAHTVNRNWYSDADVPASARQEGCQDIATQLISNMDIDVILGGGRKYMFRMGTPDPEYPDDYSQGGTRLDGKNLVQEWLAKRQGARYVWNRTELMQASLDPSVTHLMGLFEPGDMKYEIHRDSTLDPSLMEMTEAALRLLSRNPRGFFLFVEGGRIDHGHHESRAYRALTETIMFDDAIERAGQLTSEEDTLSLVTADHSHVFSFGGYPLRGSSIFGLAPGKARDRKAYTVLLYGNGPGYVLKDGARPDVTESESGSPEYRQQSAVPLDEETHAGEDVAVFARGPQAHLVHGVQEQTFIAHVMAFAACLEPYTACDLAPPAGTTDAAHPG
As for B1, in assay [1], the “binding of DR6 ectodomain to p75NTR expressing cells” value is “does NOT bind; also recorded: no specific binding”. For the same molecule, the “binding of DR6 ectodomain to DR6 receptor expressing cells” value in assay [2] is given as “does NOT bind; also recorded: no specific binding”. Further, the “binding of DR6 ectodomain to APP expressing cells” value in assay [3] is reported as “binds APP expressed by cultured cells”.
